Source: publication PMC7610691 (Nature structural & molecular biology, 2020)

Tests used:
[1] = biological target: T1, Ycg1 (S. cerevisiae condensin HEAT-repeat subunit) (S. cerevisiae, UniProt Q06680 1-1035); test: cryo-EM structure
T1 sequence: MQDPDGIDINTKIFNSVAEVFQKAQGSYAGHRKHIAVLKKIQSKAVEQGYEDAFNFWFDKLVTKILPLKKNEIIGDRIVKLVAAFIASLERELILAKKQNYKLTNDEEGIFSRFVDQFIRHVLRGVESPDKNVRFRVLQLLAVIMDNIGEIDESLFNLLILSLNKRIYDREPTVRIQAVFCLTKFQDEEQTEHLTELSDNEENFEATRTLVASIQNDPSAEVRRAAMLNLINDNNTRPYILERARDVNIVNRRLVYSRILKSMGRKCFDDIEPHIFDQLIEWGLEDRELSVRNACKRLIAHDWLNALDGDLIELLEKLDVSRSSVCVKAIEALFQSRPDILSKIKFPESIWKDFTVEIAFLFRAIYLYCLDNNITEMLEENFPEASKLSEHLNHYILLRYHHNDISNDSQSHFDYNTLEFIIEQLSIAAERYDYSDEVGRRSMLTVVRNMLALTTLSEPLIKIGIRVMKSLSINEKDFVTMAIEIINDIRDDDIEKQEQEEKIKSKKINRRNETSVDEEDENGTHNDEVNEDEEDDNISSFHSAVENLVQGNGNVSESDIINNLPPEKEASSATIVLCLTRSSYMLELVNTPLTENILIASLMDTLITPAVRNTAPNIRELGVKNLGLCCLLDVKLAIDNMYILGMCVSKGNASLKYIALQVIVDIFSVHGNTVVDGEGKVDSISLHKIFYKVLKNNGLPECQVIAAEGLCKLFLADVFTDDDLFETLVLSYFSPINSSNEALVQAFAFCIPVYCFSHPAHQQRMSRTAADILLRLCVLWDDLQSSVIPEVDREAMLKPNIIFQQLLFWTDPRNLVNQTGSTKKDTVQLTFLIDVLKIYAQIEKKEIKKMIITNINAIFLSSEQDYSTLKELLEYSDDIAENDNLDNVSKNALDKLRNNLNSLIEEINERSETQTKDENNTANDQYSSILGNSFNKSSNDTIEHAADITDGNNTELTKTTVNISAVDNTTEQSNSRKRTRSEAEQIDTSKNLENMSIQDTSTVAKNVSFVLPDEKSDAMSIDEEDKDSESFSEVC

[2] = biological target: T2, Smc4 (S. cerevisiae condensin subunit) (S. cerevisiae, UniProt Q12267 1-1418); test: cryo-EM structure
T2 sequence: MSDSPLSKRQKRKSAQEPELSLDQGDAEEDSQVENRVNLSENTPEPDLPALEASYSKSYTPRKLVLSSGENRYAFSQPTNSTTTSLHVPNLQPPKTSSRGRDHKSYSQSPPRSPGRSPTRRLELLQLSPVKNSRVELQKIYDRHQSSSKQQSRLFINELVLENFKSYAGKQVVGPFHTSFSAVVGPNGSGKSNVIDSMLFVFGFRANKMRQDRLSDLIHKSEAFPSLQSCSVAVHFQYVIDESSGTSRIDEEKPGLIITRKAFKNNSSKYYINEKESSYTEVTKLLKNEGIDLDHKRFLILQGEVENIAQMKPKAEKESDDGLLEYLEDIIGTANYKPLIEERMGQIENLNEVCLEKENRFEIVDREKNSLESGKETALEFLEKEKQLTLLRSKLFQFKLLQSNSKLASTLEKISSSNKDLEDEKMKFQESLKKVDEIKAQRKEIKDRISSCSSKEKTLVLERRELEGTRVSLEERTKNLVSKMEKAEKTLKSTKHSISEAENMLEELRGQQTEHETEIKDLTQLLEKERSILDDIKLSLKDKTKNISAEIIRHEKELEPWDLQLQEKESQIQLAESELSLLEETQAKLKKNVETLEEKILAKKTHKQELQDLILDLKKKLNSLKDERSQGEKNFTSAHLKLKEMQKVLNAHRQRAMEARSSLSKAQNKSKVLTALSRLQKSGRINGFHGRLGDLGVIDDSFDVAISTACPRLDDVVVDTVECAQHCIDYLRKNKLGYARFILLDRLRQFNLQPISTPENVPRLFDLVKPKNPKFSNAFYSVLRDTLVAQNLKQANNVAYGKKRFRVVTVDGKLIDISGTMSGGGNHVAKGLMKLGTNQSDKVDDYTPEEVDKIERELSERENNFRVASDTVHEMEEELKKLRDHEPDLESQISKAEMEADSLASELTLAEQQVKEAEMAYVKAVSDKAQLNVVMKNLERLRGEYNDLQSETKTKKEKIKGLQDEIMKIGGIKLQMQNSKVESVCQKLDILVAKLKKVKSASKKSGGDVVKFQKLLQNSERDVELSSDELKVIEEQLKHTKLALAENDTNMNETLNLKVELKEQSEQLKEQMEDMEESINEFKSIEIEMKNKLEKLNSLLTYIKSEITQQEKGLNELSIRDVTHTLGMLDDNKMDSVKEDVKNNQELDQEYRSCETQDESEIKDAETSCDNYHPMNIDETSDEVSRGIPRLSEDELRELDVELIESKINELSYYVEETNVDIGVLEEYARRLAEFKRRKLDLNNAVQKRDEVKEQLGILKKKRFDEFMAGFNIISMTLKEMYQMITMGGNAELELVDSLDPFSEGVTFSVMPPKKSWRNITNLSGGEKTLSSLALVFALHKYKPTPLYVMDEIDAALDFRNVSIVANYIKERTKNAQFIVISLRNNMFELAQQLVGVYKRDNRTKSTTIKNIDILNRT

binding result [1]: binds
binding result [2]: binds
B1: Brn1 (S. cerevisiae condensin kleisin subunit) (natural protein)
chain: MTTQLRYENNDDDERVEYNLFTNRSTMMANFEEWIKMATDNKINSRNSWNFALIDYFYDLDVLKDGENNINFQKASATLDGCIKIYSSRVDSVTTETGKLLSGLAQRKTNGASNGDDSNGGNGEGLGGDSDEANIEIDPLTGMPISNDPDVNNTRRRVYNRVLETTLVEFETIKMKELDQELIIDPLFKKALVDFDEGGAKSLLLNTLNIDNTARVIFDASIKDTQNVGQGKLQRKEEELIERDSLVDDENEPSQSLISTRNDSTVNDSVISAPSMEDEILSLGMDFIKFDQIAVCEISGSIEQLRNVVEDINQAKDFIENVNNRFDNFLTEEELQAAVPDNAEDDSDGFDMGMQQELCYPDENHDNTSHDEQDDDNVNSTTGSIFEKDLMAYFDENLNRNWRGREHWKVRNFKKANLVNKESDLLEETRTTIGDTTDKNTTDDKSMDTKKKHKQKKVLEIDFFKTDDSFEDKVFASKGRTKIDMPIKNRKNDTHYLLPDDFHFSTDRITRLFIKPGQKMSLFSHRKHTRGDVSSGLFEKSTVSANHSNNDIPTIADEHFWADNYERKEQEEKEKEQSKEVGDVVGGALDNPFEDDMDGVDFNQAFEGTDDNEEASVKLDLQDDEDHKFPIRENKVTYSRVSKKVDVRRLKKNVWRSINNLIQEHDSRKNREQSSNDSETHTEDESTKELKFSDIIQGISKMYSDDTLKDISTSFCFICLLHLANEHGLQITHTENYNDLIVNYEDLATTQAAS
